Measurements as given in publication PMC6533308, “In vitro NTPase activity of highly purified Pdr5, a major yeast ABC multidrug transporter” (Scientific Reports, 2019).

Experiments:
Pdr5 [1] = target: T1, Pdr5 (Saccharomyces cerevisiae, UniProt P33302); experiment: enzyme-coupled (PK/LDH, NADH) ATPase assay; format: biochemical; conditions: 4 mM ATP, 5 mM MgCl2, 300 mM Tris-glycine pH 8, 30 °C, 0.004% trans-PCC-α-M
T1 construct: full-length, N-terminal 14x His tag with protease cleavage site; homologous expression in S. cerevisiae (pdr1-3), solubilized and purified in trans-PCC-α-M by IMAC and SEC
T1 sequence (P33302 whole entry): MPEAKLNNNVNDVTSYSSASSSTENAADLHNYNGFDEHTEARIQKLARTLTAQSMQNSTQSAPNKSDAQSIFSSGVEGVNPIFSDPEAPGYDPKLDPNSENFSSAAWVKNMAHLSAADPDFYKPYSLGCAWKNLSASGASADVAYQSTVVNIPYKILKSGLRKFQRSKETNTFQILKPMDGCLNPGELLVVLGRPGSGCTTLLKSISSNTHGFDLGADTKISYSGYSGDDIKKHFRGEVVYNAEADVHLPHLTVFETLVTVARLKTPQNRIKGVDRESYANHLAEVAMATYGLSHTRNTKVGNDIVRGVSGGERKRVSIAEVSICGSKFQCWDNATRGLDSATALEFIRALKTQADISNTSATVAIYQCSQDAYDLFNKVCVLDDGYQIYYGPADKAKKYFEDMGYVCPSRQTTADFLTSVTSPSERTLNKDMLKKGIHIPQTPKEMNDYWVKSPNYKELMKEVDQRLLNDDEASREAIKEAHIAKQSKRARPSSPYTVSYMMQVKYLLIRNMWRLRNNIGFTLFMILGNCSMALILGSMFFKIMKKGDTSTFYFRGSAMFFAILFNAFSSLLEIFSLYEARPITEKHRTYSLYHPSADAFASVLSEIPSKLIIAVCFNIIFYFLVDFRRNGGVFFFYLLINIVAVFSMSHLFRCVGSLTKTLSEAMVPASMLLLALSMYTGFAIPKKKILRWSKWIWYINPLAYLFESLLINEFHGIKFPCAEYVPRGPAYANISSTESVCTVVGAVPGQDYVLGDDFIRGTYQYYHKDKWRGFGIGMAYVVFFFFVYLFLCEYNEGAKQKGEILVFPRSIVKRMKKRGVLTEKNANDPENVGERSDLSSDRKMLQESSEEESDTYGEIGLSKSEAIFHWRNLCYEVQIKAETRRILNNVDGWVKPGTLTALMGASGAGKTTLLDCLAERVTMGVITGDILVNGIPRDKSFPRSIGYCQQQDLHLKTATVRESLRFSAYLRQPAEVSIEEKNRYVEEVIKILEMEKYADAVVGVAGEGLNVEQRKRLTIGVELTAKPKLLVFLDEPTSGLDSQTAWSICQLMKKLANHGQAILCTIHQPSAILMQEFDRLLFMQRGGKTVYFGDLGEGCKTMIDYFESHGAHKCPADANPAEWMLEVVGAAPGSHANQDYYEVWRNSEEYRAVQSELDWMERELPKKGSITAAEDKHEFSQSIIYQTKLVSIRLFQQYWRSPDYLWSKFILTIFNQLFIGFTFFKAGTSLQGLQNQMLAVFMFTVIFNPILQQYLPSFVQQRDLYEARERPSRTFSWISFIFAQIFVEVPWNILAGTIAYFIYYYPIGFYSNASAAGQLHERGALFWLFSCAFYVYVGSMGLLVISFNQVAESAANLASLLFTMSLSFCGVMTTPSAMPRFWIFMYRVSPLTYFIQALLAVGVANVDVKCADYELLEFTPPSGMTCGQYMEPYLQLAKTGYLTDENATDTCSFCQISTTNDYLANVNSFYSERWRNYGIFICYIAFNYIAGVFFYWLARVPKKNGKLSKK

Pdr5 [2] = target: T1, Pdr5; experiment: inhibition of ATPase, colorimetric phosphate release; format: biochemical
From the text: inhibition of ATPase, colorimetric phosphate release on Pdr5

[3] = system: Nc1nc2c(ncn2[C@@H]2O[C@H](COP(=O)(O)OP(=O)(O)OP(=O)(O)O)[C@@H](O)[C@H]2O)c(=O)[nH]1; experiment: purified protein; conditions: 10 mM MgCl2, 300 mM Tris-glycine pH 9.5, 0.004% trans-PCC-α-M, 20 min, 0-5 mM NTP
[4] = system: Nc1ccn([C@@H]2O[C@H](COP(=O)(O)OP(=O)(O)OP(=O)(O)O)[C@@H](O)[C@H]2O)c(=O)n1; experiment: purified protein; conditions: 10 mM MgCl2, 300 mM Tris-glycine pH 9.5, 0.004% trans-PCC-α-M, 20 min, 0-5 mM NTP
[5] = system: Nc1ncnc2c1ncn2[C@@H]1O[C@H](COP(=O)(O)OP(=O)(O)OP(=O)(O)O)[C@@H](O)[C@H]1O; experiment: purified protein; conditions: 10 mM MgCl2, 300 mM Tris-glycine pH 9.5, 0.004% trans-PCC-α-M, 20 min, 0-5 mM NTP
[6] = system: O=c1ccn([C@@H]2O[C@H](COP(=O)(O)OP(=O)(O)OP(=O)(O)O)[C@@H](O)[C@H]2O)c(=O)[nH]1; experiment: purified protein; conditions: 10 mM MgCl2, 300 mM Tris-glycine pH 9.5, 0.004% trans-PCC-α-M, 20 min, 0-5 mM NTP

For `Nc1ncnc2c1ncn2[C@@H]1O[C@H](COP(=O)(O)O)[C@@H](O)[C@H]1O` [AMP], the “maximum inhibition at 2 mM AMP” value (Pdr5 [1]) was ~ 20%.

Molecule `CC(=O)N1CCN(c2ccc(OCC3COC(Cn4ccnc4)(c4ccc(Cl)cc4Cl)O3)cc2)CC1` (stereo not drawn) [ketoconazole] has a Ki (Pdr5 [2]) of 22.7 ± 2.1 µM.

Work on `CCN=c1cc2oc3cc(NCC)c(C)cc3c(-c3ccccc3C(=O)OCC)c-2cc1C` [rhodamine 6 G] yielded a Ki (Pdr5 [2]) of 3.2 ± 0.2 µM.

With Pdr5 (Saccharomyces cerevisiae S288C) the Km [3] was 1.61 ± 0.30 mM, the Vmax [3] was 0.106 µmol/min/mg and the Vmax/Km [3] was 100 µL/min/mg. For the same molecule, the Km [4] was 1.62 ± 0.25 mM, the Vmax [4] was 0.385 µmol/min/mg and the Vmax/Km [4] was 200 µL/min/mg. The Km [5] was 0.44 ± 0.05 mM, the Vmax [5] was 0.208 µmol/min/mg and the Vmax/Km [5] was 500 µL/min/mg. It also gave a Km [6] of 0.59 ± 0.11 mM, a Vmax [6] of 0.0646 µmol/min/mg and a Vmax/Km [6] of 100 µL/min/mg.
